This note sets out measurements from article PMC4605657, “Interaction between TATA-Binding Protein (TBP) and Multiprotein Bridging Factor-1 (MBF1) from the Filamentous Insect Pathogenic Fungus Beauveria bassiana” (PLoS ONE, 2015).

The assay addresses T1, Beauveria bassiana TATA-binding protein (BbTBP) (Beauveria bassiana, UniProt J4W563 1-253).
T1 construct: open reading frame amplified with primers PTBP-F/PTBP-R and cloned EcoRI/HindIII into pET28a; the forward primer begins at the codon after the start methionine (GAG GGC ATT ...), the reverse primer holds the stop codon; also called BbTBP1; source: E. coli Rosetta DE3, purified (Ni- or Co-NTA agarose)
T1 sequence: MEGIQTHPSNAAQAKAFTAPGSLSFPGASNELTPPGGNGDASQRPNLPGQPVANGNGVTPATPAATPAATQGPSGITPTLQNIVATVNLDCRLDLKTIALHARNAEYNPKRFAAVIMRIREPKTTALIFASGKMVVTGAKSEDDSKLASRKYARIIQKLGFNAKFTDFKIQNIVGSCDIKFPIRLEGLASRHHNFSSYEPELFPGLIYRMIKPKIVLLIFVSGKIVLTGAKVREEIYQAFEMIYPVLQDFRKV
Description: native gel or EMSA; super-shift on 6% non-denaturing PAGE; BbTBP 1129 nM and BbMBF1 855 nM with TATA-containing oligonucleotide (TATA^C 16.8 nM or TATA^P 18.3 nM); 30 min at 37°C; 60 mM KCl, 20 mM Tris pH 7.9, 5.0 mM MgCl2, 10 mM dithiothreitol, 0.2 mg/ml BSA, 10% glycerol; nucleic acid and protein stain. As to conditions: both partners purified. For orientation: In EMSA bound probe runs differently from free probe, usually more slowly.

B1: Beauveria bassiana multiprotein bridging factor 1 (BbMBF1) (natural protein)
chain: not shown
notes: Multiprotein bridging factor 1 of Beauveria bassiana, locus tag BBA_01830, 153 amino acids; open reading frame amplified with primers PMBF1-F/PMBF1-R and cloned EcoRI/HindIII into pET28a; the forward primer begins at the codon after the start methionine (TCT GAC GAC ...), the reverse primer holds the stop codon; source: E. coli Rosetta DE3, purified (Ni- or Co-NTA agarose)
As for B1, the binding result was “binds”.
